Experiment: yeast display, Sf9 membrane polyspecificity reagent, FACS + sequencing; frameworks hold sequencing errors
Outline: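 Polyreactivity labels are assigned by the sorting gate from which each nanobody was recovered. The gates were low and high (top ~1%), set on anti-HA fluorescence for expression and streptavidin fluorescence for reagent binding. Before sorting, galactose-induced (36–48 hours) yeast display cells were stained for 1 hour at 4 °C with 10% biotinylated, detergent-solubilized Sf9 membrane reagent.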

For “QVQLVESGGGLVQAGGSLRLSCAASGFIFRWYAMGWYRQAPGKERELVAGISASGGSTYYADSVKGRFTISRDNAKNTVYLQMNSLKPEDTAVYYCAAYRRNSRWELDYWGQGTQVTVSS”, the “polyreactivity (PSR sort gate)” value was “high polyreactivity”.
For “QVQLVESGGGLVQAGGSLRLSCAASGFIFRYNTMGWYRQAPGKERELVATINRSGGSTYYADSVKGRFTISRDNAKNTVYLQMNSLKPEDTAVYYCAARSGTRWRSGYYYWGQGTHVTVSS”, the “polyreactivity (PSR sort gate)” value was “high polyreactivity”.
For “QVQLVESGGGLVQAGGSLRLSCAASGFIFRYYALGWYRQAPGKERELVAAIDYSGGSTNYADSVKGRFTISRDNAKNTVYLQMNSLKPEDNAVYYCNAEYTWHRGYDYWGQGTQVTVSS”, the “polyreactivity (PSR sort gate)” value was “low polyreactivity”.
For “QVQLVESGGGLVQAGGSLRLSCAASGFIFRYYAMGWYIQAPGKERELVATITRSGGSTYYADSVKGRFTLSRDNAKNTVYLQMNSLKPEDTAVYYCAADIYWYRGYGYWGQRTQVTVSS”, the “polyreactivity (PSR sort gate)” value was “high polyreactivity”.
With “QVQLVESGGGLVQAGGSLRLSCAASGFIFRYYAMGWYRPAPGKERELVAAISASGGSTYYADSVKGRCTISRDNAKNSDYLLMNSLKPEDTAVYYCATYYQKYRSEYWGQGTQVTVSS” the “polyreactivity (PSR sort gate)” value was “high polyreactivity”.
For “QVQLVESGGGLVQAGGSLRLSCAASGFIFRYYAMGWYRQAPGKERELVAAISASGVSTYYADSVKGRFTISRDNAKNTVYLQMNSLKPEDTAVYYCNKVTRGGYDYWGQGSQVTVSS”, the “polyreactivity (PSR sort gate)” value was “high polyreactivity”.
For “QVQLVESGGGLVQAGGSLRLSCAASGFIFRYYAMGWYRQAPGKERELVAAISSGGRTSYADSVKGRFTISRDNAKNTVYLQMNSLKPEDTAVYYCAADRWRGLFYYGKDYWGQGTQVTVSS”, the “polyreactivity (PSR sort gate)” value was “high polyreactivity”.
With “QVQLVESGGGLVQAGGSLRLSCAASGFIFRYYAMGWYRQAPGKERELVAAISWSGGSTNYADSVKGRFTISRDNAKNTVYLQMNSLKPEDTAVYYCATRYRRWSTVVQDDYWGQGTQVTVSS” the “polyreactivity (PSR sort gate)” value was “low polyreactivity”.
For “QVQLVESGGGLVQAGGSLRLSCAASGFIFRYYAMGWYRQAPGKERELVAAITKSGGRTFYADSVKGRFTISRDNAKNTVYLQMNSLKPEDTAVYYCAARANGRDDYWGQGTQVTVSS”, the “polyreactivity (PSR sort gate)” value was “high polyreactivity”.
In the case of “QVQLVESGGGLVQAGGSLRLSCAASGFIFRYYAMGWYRQAPGKERELVARISSSGGRTYYADSVKGRFTISRDNAKNTVYLQMNSLKPEDTAVYYCNTADYHGRWAFAWYGDYWGQGTQVTVSS”, the “polyreactivity (PSR sort gate)” value is reported as “high polyreactivity”.
For “QVQLVESGGGLVQAGGSLRLSCAASGFIFRYYAMGWYRQAPGKERELVASIDWSGGNTYYADSVKGRFTISRDNAKNTVYLQMNSLKPEDTAVYYCNRRGMDWGQVTQVTVSS”, the “polyreactivity (PSR sort gate)” value was “low polyreactivity”.
For “QVQLVESGGGLVQAGGSLRLSCAASGFIFRYYAMGWYRQAPGKERELVATISASGGRTYYADSVKGRFTISRDNAKNTVYLQMNSLKPEDTAVYYCAVRPYWLGTYAPVAFDYWGQGTQVTVSS”, the “polyreactivity (PSR sort gate)” value was “high polyreactivity”.
For “QVQLVESGGGLVQAGGSLRLSCAASGFIFRYYAMGWYRQAPGKERELVATISYRGASTYYADSVKGRFTISRDNAKNTVYLQMNSLKPEDTAVYYCAADWGWYWYIYDYWGQGTQVTVSS”, the “polyreactivity (PSR sort gate)” value was “low polyreactivity”.
For “QVQLVESGGGLVQAGGSLRLSCAASGFIFRYYAMGWYRQAPGKEREMVAAISRSGGSTYYADSVKGRFTISRDNANNTVYLQMKSLKPEDTAVYYCAALQSRSWYQFNYWGQGTQVTVSS”, the “polyreactivity (PSR sort gate)” value was “high polyreactivity”.
For “QVQLVESGGGLVQAGGSLRLSCAASGFIFSAYAMGWYRQAPGKERELVAAITKRGGTTYYADSVKGRFTISRDNAKNTVYLQMNSLKPEDTAVYYCATRQLSKVKDMDYWGQGTQVTVSS”, the “polyreactivity (PSR sort gate)” value was “high polyreactivity”.
For “QVQLVESGGGLVQAGGSLRLSCAASGFIFSEYAMGWYRQAPGKDMELVAAISSGGNTYYADSVKGRFTISRDNAKNTVYLQMNSLKTEDTAVYYCNADNYAFYTQRPLDGSATYDYWGQGTQVTVSS”, the “polyreactivity (PSR sort gate)” value was “low polyreactivity”.
In the case of “QVQLVESGGGLVQAGGSLRLSCAASGFIFSGNAMGWYRQAPGKERELVAAISGRGGRTYYADSVKGRFTISRDNAKNTVYLQMNSLKPEDTAVYYCAADNPYLGRKFDYWGQGTQVTVSS”, the “polyreactivity (PSR sort gate)” value is reported as “high polyreactivity”.
In the case of “QVQLVESGGGLVQAGGSLRLSCAASGFIFSGNAMGWYRQAPGKERELVAAISSGGSTNYADSVKGRFTISRDNAKNTVYLQMNSLKPEDTAVYYCNADSPERIPVDLENDYWGQGTQVTVSS”, the “polyreactivity (PSR sort gate)” value is reported as “low polyreactivity”.
With “QVQLVESGGGLVQAGGSLRLSCAASGFIFSGNAMGWYRQAPGKERELVAAITRGGITYYADSVKGRFTISRDNAKNTVYLQMNSLKPEDTAVYYCNALGFGSNYDYWGQGTQVTVSS” the “polyreactivity (PSR sort gate)” value was “high polyreactivity”.
For “QVQLVESGGGLVQAGGSLRLSCAASGFIFSGYAMGWYRQAPGKERELVAAITRSGSRTYYADSVKGRFTISRDNAKNTVYLQMNSLKPEDTAVYYCAKDKPKYGISTMDYWGQGTQVTVSS”, the “polyreactivity (PSR sort gate)” value was “high polyreactivity”.
In the case of “QVQLVESGGGLVQAGGSLRLSCAASGFIFSHNAMGWYRQAPGKERELVAAISDGGGRTYYADSVKGRFTISRDNAKNTVYLQMNSLKPEDTEVYYCAVLWPYYERYYYWGQGTQVTVSS”, the “polyreactivity (PSR sort gate)” value is reported as “high polyreactivity”.
For “QVQLVESGGGLVQAGGSLRLSCAASGFIFSKNVMGWYRQATGKERELVALINRSGGTTYYADSVKGRFTISRDNAKNTVYLQMNSLKPEDTAVYYCAARRYGYTSITWYDYLGQGTQVTVSS”, the “polyreactivity (PSR sort gate)” value was “high polyreactivity”.
For “QVQLVESGGGLVQAGGSLRLSCAASGFIFSKYGMGWYRQAPGKERELVAAISIRGGNTYYADSVKGRFTISRDNAKNTVYLQMNSLKPEDTAVYYCNALSYGRYLNYRGGMDYWGQGTQVTVSS”, the “polyreactivity (PSR sort gate)” value was “high polyreactivity”.
For “QVQLVESGGGLVQAGGSLRLSCAASGFIFSLNAMGWYRQAPGKEREFVASITWSGTRTYYADSVKGRFTISRDNAKNTVYLQMNSLKPEDTAVYYCAARTKRSYEYQAFYYWGQGTQVTVSS”, the “polyreactivity (PSR sort gate)” value was “high polyreactivity”.
With “QVQLVESGGGLVQAGGSLRLSCAASGFIFSNNAMGWYRQAHGKERELVAAISKSGGGTSYADSVKGRFTISRDNAKNTVYFQMNSLKPEDSAVYYCAARFRQFRVDYWGQGTQVTVSS” the “polyreactivity (PSR sort gate)” value was “high polyreactivity”.
With “QVQLVESGGGLVQAGGSLRLSCAASGFIFSNNAMGWYRQAPGKERELVAAITASGGRTYYADSVKGRFTISRDNAKNTVYLQMNSLKPEDTSVYYCAAALYDIMGYWGQGTQLTVSS” the “polyreactivity (PSR sort gate)” value was “high polyreactivity”.
With “QVQLVESGGGLVQAGGSLRLSCAASGFIFSNNAMGWYRQAPGKERELVAAITSSGGRTYYADSVKGRFTISRDNAKNTVYLQMNSLKPEDTAVYYCAAVWRTSVWTKYGYWGQGTQVTVSS” the “polyreactivity (PSR sort gate)” value was “high polyreactivity”.
With “QVQLVESGGGLVQAGGSLRLSCAASGFIFSPNAMGWYRQAPGKEREFVAAIRYSGTSTSYADSVKGRFTISRDNAKNTVYLQMNSLKPEDTAVYYCNAQWRFSRGYTYNYWGQGTQVTVSS” the “polyreactivity (PSR sort gate)” value was “high polyreactivity”.
For “QVQLVESGGGLVQAGGSLRLSCAASGFIFSPYAMGWYRQAPGKERELVAAISSGGSTYYADSVKGRFTISRDNAKNTVYLQMNSLKPEDTAVYYCAASWGRRKPRMDYWGLGTQVTVSS”, the “polyreactivity (PSR sort gate)” value was “high polyreactivity”.
With “QVQLVESGGGLVQAGGSLRLSCAASGFIFSPYVMGSYRQAPGKERELVAAISSIGGSTYYADSVKGRFTISRDNAKKTVYLQMNSLKPEDTAVYYCADSVYYYASRYDYWGQGTQVTVSS” the “polyreactivity (PSR sort gate)” value was “low polyreactivity”.
For “QVQLVESGGGLVQAGGSLRLSCAASGFIFSQNTMGWYRQAPGKERELVAAISKSGGTTYYADSVKGRFTISRDNAKNTVYLQMNSLKPEDTAVYYCARDKGYVSYRYNYWGQGTQVTVSS”, the “polyreactivity (PSR sort gate)” value was “high polyreactivity”.
In the case of “QVQLVESGGGLVQAGGSLRLSCAASGFIFSRNAMGWYRQAPGKERELVAAISSTGGITYYADSVKGRFSISRDNAKNTVYLQMNSLKPEDTAVYYCAACFYGYARHTWYNYWGQGTQVTVSS”, the “polyreactivity (PSR sort gate)” value is reported as “high polyreactivity”.

From the nanobody polyreactivity screen of Harvey et al. (2022)
